Article PMC3706316, “Transcription Factor Ets1 Cooperates with Estrogen Receptor α to Stimulate Estradiol-Dependent Growth in Breast Cancer Cells and Tumors” (PLoS ONE, 2013)

The binders below were run against T1, GST-Ets1 fusion protein (UniProt P14921 1-441) (assay: pull-down; GST or GST-Ets1 (4 µg/20 µL glutathione-sepharose resin) in 0.5 mL binding buffer (40 mM HEPES pH 7.5, 100 mM NaCl, 5 mM MgCl2, 0.1 mM EDTA, 0.05% Nonidet P-40, 1 mM DTT); GreenLys-labeled ERα (5 µL) 30 min at 4°C, labeled NCOA (5 µL) a further 2 h, alone or in combination; washed 3 times with 0.1% Triton X-100; SDS-PAGE, fluorescence imaging, percent of input bound). Conditions: one partner purified.
T1 construct: Transcription factor Ets1 fused to GST; the only Ets1 cDNA it names is human ETS1 (pSG5-hEts1); also called purified GST-Ets1 fusion; source: recombinant fusion protein, prepared using glutathione-sepharose resin as previously described [40]; held on the resin
T1 sequence (looked up): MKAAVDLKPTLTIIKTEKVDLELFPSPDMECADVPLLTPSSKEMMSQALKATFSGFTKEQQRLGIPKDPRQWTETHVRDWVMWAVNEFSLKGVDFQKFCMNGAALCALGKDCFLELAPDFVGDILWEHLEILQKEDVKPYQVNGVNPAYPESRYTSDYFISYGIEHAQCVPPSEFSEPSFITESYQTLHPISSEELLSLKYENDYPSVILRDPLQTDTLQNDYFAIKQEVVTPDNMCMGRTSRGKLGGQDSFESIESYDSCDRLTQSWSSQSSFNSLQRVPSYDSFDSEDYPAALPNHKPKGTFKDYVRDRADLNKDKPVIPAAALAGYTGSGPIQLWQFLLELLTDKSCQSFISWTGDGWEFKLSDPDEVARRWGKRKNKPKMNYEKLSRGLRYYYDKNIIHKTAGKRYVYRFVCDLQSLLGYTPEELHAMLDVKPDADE

| Binder | percent of labeled input bound [%] |
| --- | --- |
| nuclear receptor coactivator NCOA1 (SRC1), GreenLys-labeled (natural protein, Fluorotect GreenLys-labeled (fluorescent lysines built in during translation), plasmid PCR3.1 SRC1/NCOA1 from O'Malley and Smith; source: in vitro translated (TNT coupled transcription-translation reticulocyte lysate, T7 polymerase) from PCR3.1 SRC1/NCOA1) not shown | 27 |
| nuclear receptor coactivator NCOA2 (SRC2), GreenLys-labeled (natural protein, Fluorotect GreenLys-labeled (fluorescent lysines built in during translation), plasmid PCR3.1 SRC2/NCOA2 from O'Malley and Smith; source: in vitro translated (TNT coupled transcription-translation reticulocyte lysate, T7 polymerase) from PCR3.1 SRC2/NCOA2) not shown | 9 |
| nuclear receptor coactivator NCOA3 (AIB/SRC3), GreenLys-labeled (natural protein, Fluorotect GreenLys-labeled (fluorescent lysines built in during translation), plasmid PCR3.1 SRC3/NCOA3 from O'Malley and Smith; source: in vitro translated (TNT coupled transcription-translation reticulocyte lysate, T7 polymerase) from PCR3.1 SRC3/NCOA3) not shown | 26 |
| estrogen receptor α (ERα), GreenLys-labeled (receptor, human, UniProt P03372 1-595, looked up, Fluorotect GreenLys-labeled (fluorescent lysines built in during translation), also called hERα; fluorescently labeled ERα; source: in vitro translated (TNT coupled transcription-translation reticulocyte lysate, T7 polymerase) from pcDNA3.1 ERα) MTMTLHTKASGMALLHQIQGNELEPLNRPQLKIPLERPLGEVYLDSSKPAVYNYPEGAAYEFNAAAAANAQVYGQTGLPYGPGSEAAAFGSNGLGGFPPLNSVSPSPLMLLHPPPQLSPFLQPHGQQVPYYLENEPSGYTVREAGPPAFYRPNSDNRRQGGRERLASTNDKGSMAMESAKETRYCAVCNDYASGYHYGVWSCEGCKAFFKRSIQGHNDYMCPATNQCTIDKNRRKSCQACRLRKCYEVGMMKGGIRKDRRGGRMLKHKRQRDDGEGRGEVGSAGDMRAANLWPSPLMIKRSKKNSLALSLTADQMVSALLDAEPPILYSEYDPTRPFSEASMMGLLTNLADRELVHMINWAKRVPGFVDLTLHDQVHLLECAWLEILMIGLVWRSMEHPGKLLFAPNLLLDRNQGKCVEGMVEIFDMLLATSSRFRMMNLQGEEFVCLKSIILLNSGVYTFLSSTLKSLEEKDHIHRVLDKITDTLIHLMAKAGLTLQQQHQRLAQLLLILSHIRHMSNKGMEHLYSMKCKNVVPLYDLLLEMLDAHRLHAPTSRGGASVEETDQSHLATAGSTSSHSLQKYYITGEAEGFPATV | 10 |
